Target: UBE2L3 wild type (Mus musculus)
Assay: MST

UBE2L3 wild type (Mus musculus), sequence (B2R4A7 whole entry): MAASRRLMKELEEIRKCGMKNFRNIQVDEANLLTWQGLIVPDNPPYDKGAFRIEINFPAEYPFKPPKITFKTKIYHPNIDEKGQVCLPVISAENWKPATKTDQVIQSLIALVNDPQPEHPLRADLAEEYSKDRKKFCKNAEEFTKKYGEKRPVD

Kd: 150 nM
B1: GST-MuRF1RM (MuRF1 amino acids 1-115, RING and MFC domains) (domain or fragment)
chain: MDYKSGLIPDGNAMENLEKQLICPICLEMFTKPVVILPCQHNLCRKCANDIFQAANPYWTNRGGSVSMSGGRFRCPSCRHEVIMDRHGVYGLQRNLLVENIIDIYKQECSSRPLQ
modifications: red fluorescent dye NT-647, covalently, by amine coupling (in the fluorescence assay only)

Reference: PMC12103069 (2025)
